Data: publication PMC10786891, “Massively parallel profiling of RNA-targeting CRISPR-Cas13d”

The binders below were run against T1, EsCas13d, nuclease-dead (Eubacterium siraeum, UniProt B0MS50, R295A;H300A;R849A;H854A) (assay: crRNA (strand 1, pre-loaded); Mg2+; 40 mM Tris-HCl pH 7.5, 150 mM NaCl, 6 mM MgCl2, 1 mM DTT, 0.1% Tween-20, 0.2 mg/ml BSA; 25 C; 10 min per concentration, then washed). Settings: tags: His6-TwinStrep-SUMO cleaved; N-terminal SNAP kept (SNAP-Surface 488); label: 3' end held by stalled T7 RNA polymerase.
T1 sequence: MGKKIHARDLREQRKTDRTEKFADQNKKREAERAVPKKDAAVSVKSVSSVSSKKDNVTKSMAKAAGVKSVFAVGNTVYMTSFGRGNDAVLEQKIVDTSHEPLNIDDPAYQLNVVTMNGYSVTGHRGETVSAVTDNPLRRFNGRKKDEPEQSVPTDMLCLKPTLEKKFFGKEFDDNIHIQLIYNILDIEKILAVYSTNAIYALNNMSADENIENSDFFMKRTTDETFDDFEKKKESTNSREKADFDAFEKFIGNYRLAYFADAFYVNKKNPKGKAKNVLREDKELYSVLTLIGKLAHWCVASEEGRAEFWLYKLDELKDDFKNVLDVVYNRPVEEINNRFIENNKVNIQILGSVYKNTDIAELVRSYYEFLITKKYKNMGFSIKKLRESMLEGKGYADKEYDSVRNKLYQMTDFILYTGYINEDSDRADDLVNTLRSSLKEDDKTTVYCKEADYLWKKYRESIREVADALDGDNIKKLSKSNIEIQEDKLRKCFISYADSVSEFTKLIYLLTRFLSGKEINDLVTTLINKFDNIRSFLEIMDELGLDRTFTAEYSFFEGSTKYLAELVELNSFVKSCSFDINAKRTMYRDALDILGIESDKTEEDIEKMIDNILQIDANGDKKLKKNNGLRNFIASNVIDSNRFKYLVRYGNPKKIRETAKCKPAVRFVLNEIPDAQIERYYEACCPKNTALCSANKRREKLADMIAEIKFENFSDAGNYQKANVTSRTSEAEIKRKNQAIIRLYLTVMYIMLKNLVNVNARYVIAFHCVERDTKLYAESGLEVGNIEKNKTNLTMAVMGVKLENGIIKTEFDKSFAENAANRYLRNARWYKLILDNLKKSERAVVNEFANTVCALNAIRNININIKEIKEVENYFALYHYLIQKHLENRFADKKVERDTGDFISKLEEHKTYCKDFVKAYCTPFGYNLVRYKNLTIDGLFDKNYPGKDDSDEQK

Row | Binder | Kd [nM]
1 | target 1 insU 3' of 17,insG 3' of 7 (mixed) RNA 1: CACCCGUGCAAAAAUGCAGGGGUCUAAAACUGAGCGGAUAACCUCUCUAUGG RNA 2: GGGAAUGGAUCCACAUCUACGAAUUCGUACCAUAGUAGAGGUUAUCGCGCUCACCGAGAUCGGAAGAGCACACGU | 13.7 ± 0.6
2 | target 1 U10G,A16C (mixed) RNA 1: CACCCGUGCAAAAAUGCAGGGGUCUAAAACUGAGCGGAUAACCUCUCUAUGG RNA 2: GGGAAUGGAUCCACAUCUACGAAUUCGUACCAUAGCGAGGUGAUCCGCUCACCGAGAUCGGAAGAGCACACGU | 57 ± 10
3 | target 3 G4A (mixed) RNA 1: CACCCGUGCAAAAUUGCAGGGGUCUAAAACGACCUGAAUAUUUCAGAUCAAA RNA 2: GGGAAUGGAUCCACAUCUACGAAUUCGUUUUUGAUCUGAAAUAUUCAAGUCUGCAGAUCGGAAGAGCACACGU | 4.89 ± 0.35
4 | target 3 G3U,U22A (mixed) RNA 1: CACCCGUGCAAAAUUGCAGGGGUCUAAAACGACCUGAAUAUUUCAGAUCAAA RNA 2: GGGAAUGGAUCCACAUCUACGAAUUCGUUAUUGAUCUGAAAUAUUCAGUUCUGCAGAUCGGAAGAGCACACGU | 20.6 ± 2.75
5 | target 3 insA 3' of 4,insA 3' of 3 (mixed) RNA 1: CACCCGUGCAAAAUUGCAGGGGUCUAAAACGACCUGAAUAUUUCAGAUCAAA RNA 2: GGGAAUGGAUCCACAUCUACGAAUUCGUUUUUGAUCUGAAAUAUUCAGAGAUCUGCAGAUCGGAAGAGCACACGU | 50 ± 7.5
6 | target 3 del4,del22 (mixed) RNA 1: CACCCGUGCAAAAUUGCAGGGGUCUAAAACGACCUGAAUAUUUCAGAUCAAA RNA 2: GGGAAUGGAUCCACAUCUACGAAUUCGUUUUGAUCUGAAAUAUUCAGUCUGCAGAUCGGAAGAGCACACGU | 16.6 ± 2.3
7 | target 3 insG 3' of 7,insG 3' of 6 (mixed) RNA 1: CACCCGUGCAAAAUUGCAGGGGUCUAAAACGACCUGAAUAUUUCAGAUCAAA RNA 2: GGGAAUGGAUCCACAUCUACGAAUUCGUUUUUGAUCUGAAAUAUUGCGAGGUCUGCAGAUCGGAAGAGCACACGU | 24.9 ± 1.9
8 | target 3 insC 3' of 9,insU 3' of 4 (mixed) RNA 1: CACCCGUGCAAAAUUGCAGGGGUCUAAAACGACCUGAAUAUUUCAGAUCAAA RNA 2: GGGAAUGGAUCCACAUCUACGAAUUCGUUUUUGAUCUGAAAUACUUCAGUGUCUGCAGAUCGGAAGAGCACACGU | 41.5 ± 6
9 | target 3 del5,del6 (mixed) RNA 1: CACCCGUGCAAAAUUGCAGGGGUCUAAAACGACCUGAAUAUUUCAGAUCAAA RNA 2: GGGAAUGGAUCCACAUCUACGAAUUCGUUUUUGAUCUGAAAUAUUGGUCUGCAGAUCGGAAGAGCACACGU | 72 ± 9
10 | target 3 insU 3' of 22,insG 3' of 5 (mixed) RNA 1: CACCCGUGCAAAAUUGCAGGGGUCUAAAACGACCUGAAUAUUUCAGAUCAAA RNA 2: GGGAAUGGAUCCACAUCUACGAAUUCGUUUUUUGAUCUGAAAUAUUCAGGGUCUGCAGAUCGGAAGAGCACACGU | 17.4 ± 1.7
11 | target 3 C1G,U2C (mixed) RNA 1: CACCCGUGCAAAAUUGCAGGGGUCUAAAACGACCUGAAUAUUUCAGAUCAAA RNA 2: GGGAAUGGAUCCACAUCUACGAAUUCGUUUUUGAUCUGAAAUAUUCAGGCGUGCAGAUCGGAAGAGCACACGU | 17.1 ± 3.8
12 | target 3 A5U,U22A (mixed) RNA 1: CACCCGUGCAAAAUUGCAGGGGUCUAAAACGACCUGAAUAUUUCAGAUCAAA RNA 2: GGGAAUGGAUCCACAUCUACGAAUUCGUUAUUGAUCUGAAAUAUUCUGGUCUGCAGAUCGGAAGAGCACACGU | 48 ± 10
13 | target 1 insG 3' of 9,insA 3' of 4 (mixed) RNA 1: CACCCGUGCAAAAAUGCAGGGGUCUAAAACUGAGCGGAUAACCUCUCUAUGG RNA 2: GGGAAUGGAUCCACAUCUACGAAUUCGUACCAUAGAGAGGUUAGUCCGCAUCACCGAGAUCGGAAGAGCACACGU | 9.6 ± 1
14 | target 3 insC 3' of 8,insU 3' of 3 (mixed) RNA 1: CACCCGUGCAAAAUUGCAGGGGUCUAAAACGACCUGAAUAUUUCAGAUCAAA RNA 2: GGGAAUGGAUCCACAUCUACGAAUUCGUUUUUGAUCUGAAAUAUCUCAGGUUCUGCAGAUCGGAAGAGCACACGU | 59 ± 25.5
15 | target 3 A5G,U8C (mixed) RNA 1: CACCCGUGCAAAAUUGCAGGGGUCUAAAACGACCUGAAUAUUUCAGAUCAAA RNA 2: GGGAAUGGAUCCACAUCUACGAAUUCGUUUUUGAUCUGAAAUACUCGGGUCUGCAGAUCGGAAGAGCACACGU | 86.5 ± 13
16 | target 3 C6U,U22C (mixed) RNA 1: CACCCGUGCAAAAUUGCAGGGGUCUAAAACGACCUGAAUAUUUCAGAUCAAA RNA 2: GGGAAUGGAUCCACAUCUACGAAUUCGUUCUUGAUCUGAAAUAUUUAGGUCUGCAGAUCGGAAGAGCACACGU | 14.5 ± 1.85
17 | target 3 insC 3' of 22,insC 3' of 4 (mixed) RNA 1: CACCCGUGCAAAAUUGCAGGGGUCUAAAACGACCUGAAUAUUUCAGAUCAAA RNA 2: GGGAAUGGAUCCACAUCUACGAAUUCGUUUCUUGAUCUGAAAUAUUCAGCGUCUGCAGAUCGGAAGAGCACACGU | 39 ± 12
18 | target 3 insA 3' of 21,insA 3' of 3 (mixed) RNA 1: CACCCGUGCAAAAUUGCAGGGGUCUAAAACGACCUGAAUAUUUCAGAUCAAA RNA 2: GGGAAUGGAUCCACAUCUACGAAUUCGUUUUAUGAUCUGAAAUAUUCAGGAUCUGCAGAUCGGAAGAGCACACGU | ~69
19 | target 3 U2A,A12C (mixed) RNA 1: CACCCGUGCAAAAUUGCAGGGGUCUAAAACGACCUGAAUAUUUCAGAUCAAA RNA 2: GGGAAUGGAUCCACAUCUACGAAUUCGUUUUUGAUCUGACAUAUUCAGGACUGCAGAUCGGAAGAGCACACGU | 33 ± 5.5
20 | target 3 insU 3' of 11,insU 3' of 4 (mixed) RNA 1: CACCCGUGCAAAAUUGCAGGGGUCUAAAACGACCUGAAUAUUUCAGAUCAAA RNA 2: GGGAAUGGAUCCACAUCUACGAAUUCGUUUUUGAUCUGAAAUUAUUCAGUGUCUGCAGAUCGGAAGAGCACACGU | 23.6 ± 4.15
21 | target 3 insC 3' of 11,insG 3' of 5 (mixed) RNA 1: CACCCGUGCAAAAUUGCAGGGGUCUAAAACGACCUGAAUAUUUCAGAUCAAA RNA 2: GGGAAUGGAUCCACAUCUACGAAUUCGUUUUUGAUCUGAAACUAUUCAGGGUCUGCAGAUCGGAAGAGCACACGU | 86.5 ± 29
22 | target 1 insU 3' of 21,insG 3' of 1 (mixed) RNA 1: CACCCGUGCAAAAAUGCAGGGGUCUAAAACUGAGCGGAUAACCUCUCUAUGG RNA 2: GGGAAUGGAUCCACAUCUACGAAUUCGUACCUAUAGAGAGGUUAUCCGCUCAGCCGAGAUCGGAAGAGCACACGU | 24.9 ± 2.3
23 | target 3 A5G,U21A (mixed) RNA 1: CACCCGUGCAAAAUUGCAGGGGUCUAAAACGACCUGAAUAUUUCAGAUCAAA RNA 2: GGGAAUGGAUCCACAUCUACGAAUUCGUUUAUGAUCUGAAAUAUUCGGGUCUGCAGAUCGGAAGAGCACACGU | 98 ± 44.5
24 | target 3 insA 3' of 2,insA 3' of 2 (mixed) RNA 1: CACCCGUGCAAAAUUGCAGGGGUCUAAAACGACCUGAAUAUUUCAGAUCAAA RNA 2: GGGAAUGGAUCCACAUCUACGAAUUCGUUUUUGAUCUGAAAUAUUCAGGUAACUGCAGAUCGGAAGAGCACACGU | 30.4 ± 3.8
